Test results reported in patent publication US20190225680A1 (NASCIENT, published 2019).

What was measured:
[1] = molecular target: T1, human TNC rCd4-His-FBG (rat; human, UniProt P05540 207-386); experiment: HTRF competition, scFv supernatant, competitor d2-labelled B12 IgG, biotinylated human rCd4-His-FBG
T1 construct: domain: domains 3 and 4; Biotinylated in the ELISA and HTRF assays; also called Hu TNC; human TNC FBG
T1 sequence: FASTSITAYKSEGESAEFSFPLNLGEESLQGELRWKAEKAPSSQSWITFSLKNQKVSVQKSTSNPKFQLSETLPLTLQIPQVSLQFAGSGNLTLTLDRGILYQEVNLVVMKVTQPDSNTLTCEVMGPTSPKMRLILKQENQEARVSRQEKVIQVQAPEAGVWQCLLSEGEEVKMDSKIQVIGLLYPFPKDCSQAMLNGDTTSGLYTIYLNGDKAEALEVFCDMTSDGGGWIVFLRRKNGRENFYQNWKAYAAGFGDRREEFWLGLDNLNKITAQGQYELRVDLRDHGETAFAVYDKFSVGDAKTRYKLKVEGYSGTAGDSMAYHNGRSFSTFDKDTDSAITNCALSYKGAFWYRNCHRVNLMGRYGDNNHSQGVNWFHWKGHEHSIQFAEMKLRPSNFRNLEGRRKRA
Procedure: An HTRF-based competition assay was developed to screen for antibody variants with improved binding to human TNC FBG.
All samples and reagents were prepared in assay buffer (50 mM NaPO₄, 0.1% BSA, 0.4 M KF, pH 7.0) at 4× the stated concentration. 5 μl of each reagent was subsequently added to low volume 384-well assay plates (Greiner, 784075) to give a final reaction volume of 20 μl. IgG antibodies were labelled using the d2 labelling kit (CisBio, 62D2DPEA) as directed by the manufacturer. Streptavidin europium cryptate (CisBio, 610SAKLA, Lot#25C) was used at a final concentration of 1.8 ng active moiety (SA) per 20 μl reaction as recommended by the manufacturer. Biotinylated rCd4-His-FBG was prepared using EZ-link Sulfo-NHS-LC-Biotin reagent (Thermo Scientific, 21327) the extent of biotinylation was quantified using biotinylation fluorescence quantitation kit (Thermo Scientific, 46610). Where appropriate, supernatants containing scFv (prepared as described above for ELISA assays) were added to the 384-well assay plate at a final dilution of 1/20 (i.e. 1/5 dilution in assay buffer followed by addition of 5 μl diluted sample to the 20 μl FRET assay). […] Unless otherwise stated, biotinylated rCd4-His-FBG (biotin:protein ratio=1.8:1) was present at either 2.2 nM (in assays using the 2A5 IgG antibody) or 1 nM (in experiments using B12 IgG). Samples were incubated for approximately 1 h at room temperature and the FRET signal was determined using a BMG Pherastar instrument: excitation=320 nm; emission=620 nm and 665 nm; integration start time=60 μs; integration time=500 μs; 100 flashes per well. For competition assays containing culture supernatant, biotinylated rCd4-His-FBG antigen was pre-incubated with streptavidin europium cryptate for 45 min prior to addition of reagents to the assay plate. All FRET signals are presented as ΔR, where R=(E665/E620×104) and ΔR=(Rsample−Rbackground fluorescence).
Culture supernatants containing unlabelled scFv clones from affinity selected mutant libraries were tested for inhibition of the interaction between FBG and the fluorophore-labelled parental IgG antibody.

[2] = molecular target: T2, mouse TNC rCd4-His-FBG (rat; mouse, UniProt P05540 207-386); experiment: anti-FLAG capture DELFIA ELISA, scFv supernatant, biotinylated mouse rCd4-His-FBG
T2 construct: domain: domains 3 and 4; also called Mu TNC; mouse TNC FBG
T2 sequence: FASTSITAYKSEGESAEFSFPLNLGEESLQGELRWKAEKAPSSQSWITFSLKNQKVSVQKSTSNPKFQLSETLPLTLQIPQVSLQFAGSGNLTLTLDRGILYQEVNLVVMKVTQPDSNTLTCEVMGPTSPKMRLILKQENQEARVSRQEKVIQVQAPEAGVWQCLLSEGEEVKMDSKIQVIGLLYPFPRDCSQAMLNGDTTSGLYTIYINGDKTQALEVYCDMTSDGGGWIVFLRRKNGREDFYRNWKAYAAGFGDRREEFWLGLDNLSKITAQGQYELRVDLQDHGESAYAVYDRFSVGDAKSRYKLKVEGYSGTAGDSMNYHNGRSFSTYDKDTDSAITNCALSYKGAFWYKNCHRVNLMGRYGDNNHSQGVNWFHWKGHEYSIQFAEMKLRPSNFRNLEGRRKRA
Procedure: E. coli clones harbouring scFv pSANG10 expression plasmids were induced in 96-well plates with auto-induction media as described previously (Schofield et al, 2007). E. coli supernatants were harvested for ELISA assays. ELISA used the DELFIA (dissociation enhanced lanthanide fluorescent immunoassay) system with Europium-labelled anti-FLAG antibody (Sigma, Aldrich, UK). Black immunosorb plates (Nunc) were coated overnight with anti-FLAG M2 antibody (Sigma, F3165, 5 μg/ml in PBS, 50 μl per well), in wells blocked by the addition of 2% milk powder, PBS (PBS-M, 300 μl per well). Plates were washed three times with PBS-T (PBS, 0.1% Tween-20) and three times with PBS followed by the addition of a 1:2 dilution of 96-well auto-induction culture supernatants containing expressed scFv in PBS-M (50 μl per well). The plates were incubated for 1 h, washed as above and biotinylated mouse or human rCd4-His-FBG (5 μg/ml in PBS-M, 50 μl) added to each well. Plates were incubated for a further 1 h, washed and Strepravidin-Eu added (Perkin Elmer, 1 μg/ml, PBS-M, 50 μl), incubated for 30 min, washed and DELFIA enhancement solution added (50 μl) and plates read on a Perkin Elmer Fusion plate reader (excitation=320 nm, emission 620 nm). The format of the assay is shown in.

B1: 165_13_D1 scFv (scFv, V domains shown)
VH: QVQLVESGGGLVQPGRSLRLSCAASGFTFDDYAMHWVRQAPGKGLEWVSGISGSGGSTYYADSVKGRFTISRDNAKNSLYLQMNSLRAEDTALYYCAKGTRGEGDTFDIWGQGTMVTVSS
VL: DIQMTQSPASLPTPVGDRVTITCRASQYIQGFLNWYQQKPGKAPKLLIYDASNLETGVPSRFSGSGSGTDFTLTISSLQPEDFATYYCQQSYSTPQTFGQGTKVDIK
notes: VH CDR3 GTRGEGDTFDI; not shown: scFv linker, domain order, and the tags of the pSANG10 vector (FLAG and others)
- % inhibition of HTRF signal [1]: 91%
- fold improvement for mouse FBG binding (against the parent B12) [2]: ≥ 4 fold

B2: 165_13_B1 scFv (scFv, V domains shown)
VH: QVQLVESGGGLVQPGRSLRLSCAASGFTFDDYAMHWVRQAPGKGLEWVSGISGSGGSTYYADSVKGRFTISRDNAKNSLYLQMNSLRAEDTALYYCAKVMSSMEDAFDIWGQGTMVTVSS
VL: DIQMTQSPASLPTPVGDRVTITCRASQYIQGFLNWYQQKPGKAPKLLIYDASNLETGVPSRFSGSGSGTDFTLTISSLQPEDFATYYCQQSYSTPQTFGQGTKVDIK
notes: VH CDR3 VMSSMEDAFDI; not shown: scFv linker, domain order, and the tags of the pSANG10 vector (FLAG and others)
- % inhibition of HTRF signal [1]: 91%
- fold improvement for mouse FBG binding (against the parent B12) [2]: ≥ 4 fold

B3: 165_13_E1 scFv (scFv, V domains shown, not shown: small tags and cut ends)
VH: QVQLVESGGGLVQPGRSLRLSCAASGFTFDDYAMHWVRQAPGKGLEWVSGISGSGGSTYYADSVKGRFTISRDNAKNSLYLQMNSLRAEDTALYYCAKDISAVMDVPQTWGQGTMVTVSS
VL: DIQMTQSPASLPTPVGDRVTITCRASQYIQGFLNWYQQKPGKAPKLLIYDASNLETGVPSRFSGSGSGTDFTLTISSLQPEDFATYYCQQSYSTPQTFGQGTKVDIK
notes: VH CDR3 DISAVMDVPQT; 48 is used
- % inhibition of HTRF signal [1]: 91%
- fold improvement for mouse FBG binding (against the parent B12) [2]: ≥ 4 fold

B4: 165_13_B3 scFv (scFv, V domains shown, not shown: small tags and cut ends)
VH: QVQLVESGGGLVQPGRSLRLSCAASGFTFDDYAMHWVRQAPGKGLEWVSGISGSGGSTYYADSVKGRFTISRDNAKNSLYLQMNSLRAEDTALYYCAKALARGHDTFDIWGQGTMVTVSS
VL: DIQMTQSPASLPTPVGDRVTITCRASQYIQGFLNWYQQKPGKAPKLLIYDASNLETGVPSRFSGSGSGTDFTLTISSLQPEDFATYYCQQSYSTPQTFGQGTKVDIK
notes: VH CDR3 ALARGHDTFDI
- % inhibition of HTRF signal [1]: 91%
- fold improvement for mouse FBG binding (against the parent B12) [2]: ≥ 4 fold

B5: 165_13_A4 scFv (scFv, V domains shown)
VH: QVQLVESGGGLVQPGRSLRLSCAASGFTFDDYAMHWVRQAPGKGLEWVSGISGSGGSTYYADSVKGRFTISRDNAKNSLYLQMNSLRAEDTALYYCAKDKYPVLDTFDIWGQGTMVTVSS
VL: DIQMTQSPASLPTPVGDRVTITCRASQYIQGFLNWYQQKPGKAPKLLIYDASNLETGVPSRFSGSGSGTDFTLTISSLQPEDFATYYCQQSYSTPQTFGQGTKVDIK
notes: VH CDR3 DKYPVLDTFDI; not shown: scFv linker, domain order, and the tags of the pSANG10 vector (FLAG and others)
- % inhibition of HTRF signal [1]: 91%
- fold improvement for mouse FBG binding (against the parent B12) [2]: ≥ 4 fold

B6: 165_13_D4 scFv (scFv, V domains shown)
VH: QVQLVESGGGLVQPGRSLRLSCAASGFTFDDYAMHWVRQAPGKGLEWVSGISGSGGSTYYADSVKGRFTISRDNAKNSLYLQMNSLRAEDTALYYCAKGTVGEGDTFDIWGQGTMVTVSS
VL: DIQMTQSPASLPTPVGDRVTITCRASQYIQGFLNWYQQKPGKAPKLLIYDASNLETGVPSRFSGSGSGTDFTLTISSLQPEDFATYYCQQSYSTPQTFGQGTKVDIK
notes: VH CDR3 GTVGEGDTFDI; not shown: scFv linker, domain order, and the tags of the pSANG10 vector (FLAG and others)
- % inhibition of HTRF signal [1]: 91%
- fold improvement for mouse FBG binding (against the parent B12) [2]: ≥ 4 fold

B7: 165_13_C3 scFv (scFv, V domains shown)
VH: QVQLVESGGGLVQPGRSLRLSCAASGFTFDDYAMHWVRQAPGKGLEWVSGISGSGGSTYYADSVKGRFTISRDNAKNSLYLQMNSLRAEDTALYYCAKSYQSDEDAFDIWGQGTMVTVSS
VL: DIQMTQSPASLPTPVGDRVTITCRASQYIQGFLNWYQQKPGKAPKLLIYDASNLETGVPSRFSGSGSGTDFTLTISSLQPEDFATYYCQQSYSTPQTFGQGTKVDIK
notes: VH CDR3 SYQSDEDAFDI; Antibody C3 of the B12 family; not shown: scFv linker, domain order, and the tags of the pSANG10 vector (FLAG and others)
- % inhibition of HTRF signal [1]: 91%
- fold improvement for mouse FBG binding (against the parent B12) [2]: ≥ 4 fold

B8: 165_13_B6 scFv (scFv, V domains shown)
VH: QVQLVESGGGLVQPGRSLRLSCAASGFTFDDYAMHWVRQAPGKGLEWVSGISGSGGSTYYADSVKGRFTISRDNAKNSLYLQMNSLRAEDTALYYCAKGQKGEGDTFDIWGQGTMVTVSS
VL: DIQMTQSPASLPTPVGDRVTITCRASQYIQGFLNWYQQKPGKAPKLLIYDASNLETGVPSRFSGSGSGTDFTLTISSLQPEDFATYYCQQSYSTPQTFGQGTKVDIK
notes: VH CDR3 GQKGEGDTFDI; not shown: scFv linker, domain order, and the tags of the pSANG10 vector (FLAG and others)
- % inhibition of HTRF signal [1]: 91%
- fold improvement for mouse FBG binding (against the parent B12) [2]: ≥ 4 fold
